Results published in US20190282704A1.
Positions count from the first letter of the chain named. Numbers in names are those of the source.

B1: Feline 15H05_VH1 mouse VL (antibody, V domains shown)
VH: QVLLVQSGAEVRTPGASVKIFCKASGYSFTSYTIHWLRQAPAQGLEWMGNINPTSGYTENNQRFKDRLTLTADTSTNTAYMELSSLRSADTAMYYCARWGFKYDGEWSFDVWGAGTTVTVSS
VL: DIQMNQSPSSLSASLGDTITVTCRASQGISIWLSWYQQKPGNIPKVLINKASNLHIGVPPRFSGSGSGTHFTLTITSLQPEDIATYYCLQSQTYPLTFGGGTKLEIN
B2: Feline 15H05 VH2 mouse VL (antibody, V domains shown)
VH: B1 VH with S28G, L37V, A40S
VL: B1 VL
B3: Feline 15H05_VH3 mouse VL (antibody, V domains shown)
VH: B1 VH with T13K, A42E
VL: B1 VL
B4: Feline 15H05 1.1 FW1 (antibody, V domains shown)
VH: B1 VH
VL: B1 VL with N42K, I43V, V46L, N49Y, P60S, H70D, T76S, Q79E, I83A, N107K
B5: Feline 15H05 1.1 FW2 (antibody, V domains shown)
VH: B1 VH
VL: EIQMTQSPSSLSASPGDRVTITCRASQGISIWLSWYQQKPGNIPKVLINKASNLHIGVPSRFSGSGSGTDFTLTISSLEPEDAATYYCLQSQTYPLTFGGGTKLEIK
B6: Feline 15H05 1.1 FW3 (antibody, V domains shown)
VH: B1 VH
VL: B5 VL with N42K, I43V, V46L, N49Y, S60P, D70H, S76T, E79Q, A83I
B7: Feline 15H05 1.1_FW1_2 (antibody, V domains shown)
VH: B1 VH
VL: B1 VL with P60S, H70D, T76S, Q79E, I83A, N107K
B8: Feline 15H05 1.1 FW2_3 (antibody, V domains shown)
VH: B1 VH
VL: B5 VL with S60P, D70H, S76T, E79Q, A83I
B9: Feline 15H05 1.1 FW1_3 (antibody, V domains shown)
VH: B1 VH
VL: B1 VL with N42K, I43V, V46L, N49Y, N107K
B10: Feline 11E12 1.1 K46Q (antibody, V domains shown)
VH: QVLLVQSGAEVKKPGASVKIFCKASGYSFTYYDINWLRQAPEQGLEWMGWIFPGDGGTKYNETFKGRLTLTADTSTNTVYMELSSLRSADTAMYYCARGGTSVIRDAMDYWGQGALVTVSS
VL: EIQMTQSPSSLSASPGDRVTITCRASESVDNYGISFMHWYQQKPGQVPKLLIYRASNLESGVPSRFSGSGSGTDFTLTISSLEPEDAATYYCQQSNKDPLTFGQGT
B11: Feline 15H05 1.1 (antibody, V domains shown)
VH: B1 VH
VL: B5 VL with N42K, I43V, V46L, N49Y
B12: Feline 15H05 1.2 (antibody, V domains shown)
VH: B1 VH
VL: EITMTQSPGSLAGSPGQQVTMNCRASQGISIWLSWYQQKPGQHPKLLIYKASNLHIGVPDRFSGSGSGTDFTLTISNLQAEDVASYYCLQSQTYPLTFGGGTKLEIK
B13: Feline 15H05 1.3 (antibody, V domains shown)
VH: B1 VH
VL: EVVLTQSSAFLSRTLKEKATITCRASQGISIWLSWYQQKPNQAPKLLVKKASNLHIGAPSRFSGSGSGTDFTLTISSPEPEDAATYYCLQSQTYPLTFGGGTKLGDQ
B14: Feline 15H05 2.1 (antibody, V domains shown)
VH: B1 VH with S28G, L37V, A40S
VL: B5 VL with N42K, I43V, V46L, N49Y
B15: Feline 15H05 2.2 (antibody, V domains shown)
VH: B1 VH with S28G, L37V, A40S
VL: B12 VL
B16: Feline 15H05 3.1 (antibody, V domains shown)
VH: B1 VH with T13K, A42E
VL: B5 VL with N42K, I43V, V46L, N49Y
B17: Feline 15H05 1.1 K42N (antibody, V domains shown)
VH: B1 VH
VL: B5 VL with I43V, V46L, N49Y
B18: Feline 15H05 1.1 V43I (antibody, V domains shown)
VH: B1 VH
VL: B5 VL with N42K, V46L, N49Y
B19: Feline 15H05 1.1 L46V (antibody, V domains shown)
VH: B1 VH
VL: B5 VL with N42K, I43V, N49Y
B20: Feline 15H05 1.1 Y49N (antibody, V domains shown)
VH: B1 VH
VL: B5 VL with N42K, I43V, V46L
B21: Feline 15H05 1.1 K42N_V43I (antibody, V domains shown)
VH: B1 VH
VL: B5 VL with V46L, N49Y
B22: ZTS-361 (antibody)
heavy: QVLLVQSGAEVRTPGASVKIFCKASGYSFTSYTIHWLRQAPAQGLEWMGNINPTSGYTENNQRFKDRLTLTADTSTNTAYMELSSLRSADTAMYYCARWGFKYDGEWSFDVWGAGTTVTVSSASTTAPSVFPLAPSCGTTSGATVALACLVLGYFPEPVTVSWNSGALTSGVHTFPAVLQASGLYSLSSMVTVPSSRWLSDTFTCNVAHPPSNTKVDKTVRKTDHPPGPKPCDCPKCPPPEAAGAPSIFIFPPKPKDTLSISRTPEVTCLVVDLGPDDSDVQITWFVDNTQVYTAKTSPREEQFNSTYRVVSVLPILHQDWLKGKEFKCKVNSKSLPSPIERTISKAKGQPHEPQVYVLPPAQEELSRNKVSVTCLIKSFHPPDIAVEWEITGQPEPENNYRTTPPQLDSDGTYFVYSKLSVDRSHWQRGNTYTCSVSHEALHSHHTQKSLTQSPGK
light: EIQMTQSPSSLSASPGDRVTITCRASQGISIWLSWYQQKPGNIPKVLINKASNLHIGVPSRFSGSGSGTDFTLTISSLEPEDAATYYCLQSQTYPLTFGGGTKLEIKRSDAQPSVFLFQPSLDELHTGSASIVCILNDFYPKEVNVKWKVDGVVQNKGIQESTTEQNSKDSTYSLSSTLTMSSTEYQSHEKFSCEVTHKSLASTLVKSFQRSECQRE
B23: Feline 15H05 2.3 (antibody, V domains shown)
VH: B1 VH with S28G, L37V, A40S
VL: B13 VL
B24: Feline 15H05 3.3 (antibody, V domains shown)
VH: B1 VH with T13K, A42E
VL: B13 VL

The binders below were run against canine IL-31 (Canine_IL31) (canine) (assay: SPR (Biacore), immobilised IL-31, 1:1 fit).
canine IL-31 (Canine_IL31) (canine), sequence (chain, as listed by the source limits assumed, form in doubt): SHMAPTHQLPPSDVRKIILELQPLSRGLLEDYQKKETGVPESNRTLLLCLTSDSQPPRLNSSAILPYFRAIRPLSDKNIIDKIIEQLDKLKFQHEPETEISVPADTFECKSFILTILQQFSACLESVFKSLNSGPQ

Point of comparison: B8, Kd 214 nM. Against it:
- B1 — 87000-fold lower, 0.00246 nM
- B2 — 96-fold lower, 2.22 nM
- B3 — 81000-fold lower, 0.00264 nM
- B4 — 3.8-fold higher, 813 nM
- B5 — far lower, 0.000431 nM
- B6 — 1600-fold lower, 0.13 nM
- B7 — 810-fold lower, 0.263 nM
- B9 — 49000-fold lower, 0.00436 nM
- B10 — 110-fold lower, 1.91 nM
- B11 — 42000-fold lower, 0.00504 nM
- B12 — 61-fold lower, 3.48 nM
- B13 — 34-fold lower, 6.38 nM
- B14 — 130-fold lower, 1.65 nM
- B15 — 540-fold lower, 0.393 nM
- B16 — 270-fold lower, 0.795 nM

Point of comparison: B15, koff 1.09e-05 s⁻¹. Against it:
- B1 — 41-fold lower, 2.66e-07 s⁻¹
- B2 — 35-fold higher, 0.000379 s⁻¹
- B3 — 41-fold lower, 2.64e-07 s⁻¹
- B4 — 1400-fold higher, 0.0156 s⁻¹
- B5 — 66-fold lower, 1.66e-07 s⁻¹
- B6 — 28-fold lower, 3.91e-07 s⁻¹
- B7 — 2.9-fold lower, 3.82e-06 s⁻¹
- B8 — 180-fold higher, 0.00193 s⁻¹
- B9 — 380-fold lower, 2.88e-08 s⁻¹
- B10 — 8.1-fold higher, 8.85e-05 s⁻¹
- B11 — 80-fold lower, 1.36e-07 s⁻¹
- B12 — 11-fold higher, 0.000115 s⁻¹
- B13 — 17-fold higher, 0.00019 s⁻¹
- B14 — 79-fold higher, 0.000866 s⁻¹
- B16 — 1.9-fold higher, 2.11e-05 s⁻¹

Point of comparison: B5, kon 384000 M⁻¹ s⁻¹. Against it:
- B1 — 3.6-fold lower, 108000 M⁻¹ s⁻¹
- B2 — 2.2-fold lower, 171000 M⁻¹ s⁻¹
- B3 — 3.8-fold lower, 100000 M⁻¹ s⁻¹
- B4 — 20-fold lower, 19200 M⁻¹ s⁻¹
- B6 — 130-fold lower, 3000 M⁻¹ s⁻¹
- B7 — 56-fold lower, 6910 M⁻¹ s⁻¹
- B8 — 42-fold lower, 9050 M⁻¹ s⁻¹
- B9 — 58-fold lower, 6590 M⁻¹ s⁻¹
- B10 — 8.3-fold lower, 46400 M⁻¹ s⁻¹
- B11 — 14-fold lower, 27000 M⁻¹ s⁻¹
- B12 — 12-fold lower, 33000 M⁻¹ s⁻¹
- B13 — 13-fold lower, 29700 M⁻¹ s⁻¹
- B14 — within 1.5-fold, 525000 M⁻¹ s⁻¹
- B15 — 14-fold lower, 27700 M⁻¹ s⁻¹
- B16 — 14-fold lower, 26500 M⁻¹ s⁻¹

These binders were tested against wildtype feline IL-31 (Feline_IL31_wildtype) (feline) (assay: SPR (Biacore), immobilised IL-31, 1:1 fit).
wildtype feline IL-31 (Feline_IL31_wildtype) (feline), sequence (chain, as listed by the source limits assumed, form in doubt): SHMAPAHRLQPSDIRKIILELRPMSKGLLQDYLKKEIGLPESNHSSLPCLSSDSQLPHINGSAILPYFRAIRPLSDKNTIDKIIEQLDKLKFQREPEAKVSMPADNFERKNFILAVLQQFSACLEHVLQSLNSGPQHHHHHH

Point of comparison: B14, Kd 22.3 nM. Against it:
- B1 — 130-fold lower, 0.168 nM
- B2 — 14-fold lower, 1.61 nM
- B3 — 130-fold lower, 0.177 nM
- B4 — 25-fold higher, 564 nM
- B5 — 340-fold lower, 0.065 nM
- B6 — 400-fold lower, 0.0564 nM
- B7 — 25-fold lower, 0.887 nM
- B8 — 5.5-fold higher, 123 nM
- B9 — 330-fold lower, 0.0674 nM
- B17 — 300-fold higher, 6770 nM
- B18 — 1.6-fold lower, 13.6 nM
- B19 — within 1.5-fold, 22.8 nM
- B20 — 1.8-fold higher, 39.5 nM
- B21 — 2.4-fold lower, 9.42 nM
- B22 — 47-fold lower, 0.474 nM
- B10 — 1.8-fold lower, 12.6 nM
- B11 — 1.7-fold lower, 13.5 nM
- B12 — 4.7-fold higher, 104 nM
- B13 — 3.9-fold higher, 86.4 nM
- B15 — 10-fold lower, 2.15 nM
- B23 — 14-fold lower, 1.57 nM
- B16 — 1.7-fold higher, 37.1 nM
- B24 — 1.9-fold lower, 11.6 nM

Point of comparison: B4, koff 0.00286 s⁻¹. Against it:
- B1 — 130-fold lower, 2.2e-05 s⁻¹
- B2 — 52-fold lower, 5.47e-05 s⁻¹
- B3 — 180-fold lower, 1.57e-05 s⁻¹
- B5 — 110-fold lower, 2.49e-05 s⁻¹
- B6 — 240-fold lower, 1.21e-05 s⁻¹
- B7 — 430-fold lower, 6.7e-06 s⁻¹
- B8 — 2.5-fold lower, 0.00116 s⁻¹
- B9 — 95-fold lower, 3.02e-05 s⁻¹
- B17 — 3.8-fold higher, 0.011 s⁻¹
- B18 — 7.1-fold lower, 0.000401 s⁻¹
- B19 — 3.5-fold lower, 0.000811 s⁻¹
- B20 — 3-fold lower, 0.00095 s⁻¹
- B21 — within 1.5-fold, 0.0022 s⁻¹
- B22 — 130-fold lower, 2.18e-05 s⁻¹
- B10 — 20-fold lower, 0.000145 s⁻¹
- B11 — 2.2-fold lower, 0.00131 s⁻¹
- B12 — 1.9-fold lower, 0.00147 s⁻¹
- B13 — within 1.5-fold, 0.00328 s⁻¹
- B14 — 1.6-fold higher, 0.00465 s⁻¹
- B15 — within 1.5-fold, 0.00195 s⁻¹
- B23 — 5.3-fold lower, 0.000535 s⁻¹
- B16 — 1.7-fold lower, 0.00166 s⁻¹
- B24 — 3.2-fold lower, 0.000886 s⁻¹

Point of comparison: B24, kon 76300 M⁻¹ s⁻¹. Against it:
- B1 — 1.7-fold higher, 131000 M⁻¹ s⁻¹
- B2 — 2.2-fold lower, 34000 M⁻¹ s⁻¹
- B3 — within 1.5-fold, 88900 M⁻¹ s⁻¹
- B4 — 15-fold lower, 5060 M⁻¹ s⁻¹
- B5 — 5-fold higher, 383000 M⁻¹ s⁻¹
- B6 — 2.8-fold higher, 214000 M⁻¹ s⁻¹
- B7 — 10-fold lower, 7560 M⁻¹ s⁻¹
- B8 — 8-fold lower, 9490 M⁻¹ s⁻¹
- B9 — 5.9-fold higher, 448000 M⁻¹ s⁻¹
- B17 — 47-fold lower, 1630 M⁻¹ s⁻¹
- B18 — 2.6-fold lower, 29400 M⁻¹ s⁻¹
- B19 — 2.1-fold lower, 35500 M⁻¹ s⁻¹
- B20 — 3.2-fold lower, 24000 M⁻¹ s⁻¹
- B21 — 3.1-fold higher, 234000 M⁻¹ s⁻¹
- B22 — 1.7-fold lower, 46000 M⁻¹ s⁻¹
- B10 — 6.6-fold lower, 11500 M⁻¹ s⁻¹
- B11 — within 1.5-fold, 97100 M⁻¹ s⁻¹
- B12 — 5.4-fold lower, 14100 M⁻¹ s⁻¹
- B13 — 2-fold lower, 38000 M⁻¹ s⁻¹
- B14 — 2.7-fold higher, 208000 M⁻¹ s⁻¹
- B15 — 12-fold higher, 905000 M⁻¹ s⁻¹
- B23 — 4.5-fold higher, 341000 M⁻¹ s⁻¹
- B16 — 1.7-fold lower, 44700 M⁻¹ s⁻¹
